Nine molecules from article PMC5361862, “Insights into ClpXP proteolysis: heterooligomerization and partial deactivation enhance chaperone affinity and substrate turnover in Listeria monocytogenes” (Chemical Science, 2016) can be followed below.

Where a SMILES comes first, the peptide text is derived from it. [ ]: non-standard residue; d: D form. The star is where a group is joined. Phe(3,4-Cl2) = N[C@@H](Cc1ccc(Cl)c(Cl)c1)C(=O)O; hArg = N=C(N)NCCCC[C@H](N)C(=O)O; Aoc(2) = CCCCCC[C@H](N)C(=O)O; CH2Cl = ClC*

The target of assay [1] is partially Aoc-CMK-modified LmClpP2 homotetradecamer (Listeria monocytogenes). The experiment in a line: not stated; oligomeric state of LmClpP2 after treatment with inhibitors (E2, D3, Aoc-CMK, Leu-CMK), Fig. S4; method and conditions are in the ESI.
Assay [2] has as its target Listeria monocytogenes ClpX chaperone (LmClpX) (Listeria monocytogenes) (UniProt Q8Y7K9).
Assay [3] concerns the target LmClpP2 treated with beta-lactone D3 (Listeria monocytogenes). The experiment in a line: not stated; oligomeric state of LmClpP2 after treatment with inhibitors (E2, D3, Aoc-CMK, Leu-CMK), Fig. S4; method and conditions are in the ESI.
The target in assay [4] is LmClpP2 treated with Leu-CMK (Listeria monocytogenes). Described as above.
Assay [5] deals with Listeria monocytogenes ClpX chaperone (LmClpX) (Listeria monocytogenes) (UniProt Q8Y7K9). The source holds these as a separate data set.
The target of assay [6] is T1, LmClpXP2 (Listeria monocytogenes, UniProt Q9RQI6).
T1 construct: gene clpP; ClpP2 homotetradecamer (LmClpP14) with hexameric chaperone LmClpX6
The experiment in a line: proteolysis of GFP-SsrA, fluorescence. Type of assay: biochemical.

Assay [7] addresses Listeria monocytogenes ClpX chaperone (LmClpX) (Listeria monocytogenes) (UniProt Q8Y7K9). The source holds these as a separate data set.
The target of assay [8] is Listeria monocytogenes ClpP2 homotetradecamer (LmClpP2), unmodified (Listeria monocytogenes). The experiment in a line: not stated; oligomeric state of LmClpP2 after treatment with inhibitors (E2, D3, Aoc-CMK, Leu-CMK), Fig. S4; method and conditions are in the ESI.
In assay [9] the target is T1, LmClpXP2. The experiment in a line: proteolysis of GFP-SsrA, fluorescence. Type of assay: biochemical. The note with it: with LmClpX; inhibitor 1, 10, 100 μM; covalent; inhibition.
Assay [10] deals with T2, LmClpP2 (Listeria monocytogenes, UniProt Q9RQI6).
T2 construct: gene clpP; purified homotetradecamer; construct details in ESI
Nature of the assay: peptidase assay, Ac-Ala-hArg-Leu-ACC hydrolysis. Type of assay: biochemical. The note with it: 1 μM ClpP; 200 μM substrate; inhibitor 1, 10, 100 μM; no ClpX; covalent.

With “partially Aoc-CMK-modified LmClpP2 homotetradecamer (enzyme)”, the stoichiometry N (in general, the number of molecules, sites or subunits per partner or assembly) in assay [1] was found to be 14. In addition, the protease activity (GFP-SsrA degradation) of LmClpXP2 at incremental Aoc-CMK concentrations, DMSO control as 100%; strongest at 5 uM Aoc-CMK, abolished at 50 uM in assay [2] was found to be 162%. As for “LmClpP2 treated with beta-lactone D3 (enzyme)”, the stoichiometry N in [3] is 14.

In the case of LmClpP2 treated with Leu-CMK (enzyme), the stoichiometry N in [4] was found to be 14. Consider “LmClpP1/2 heterocomplex containing Ser98 to Ala mutations”, for which, in assay [5], the K app from unfolding activity on GFP-LmSsrA (0.125 uM) with 0.4 uM LmClpX6 and varying concentrations of LmClpP14 (S98A heterocomplex) was 224 nM. In the case of `CCCCCC[C@H](NC(=O)[C@H](CCCCNC(=N)N)NC(=O)[C@H](Cc1ccc(Cl)c(Cl)c1)NC(C)=O)C(=O)CCl` [Aoc-CMK] (Ac-[Phe(3,4-Cl2)]-[hArg]-[Aoc(2)]-CH2Cl), the activity at 5 µM in assay [6] amounted to 162%.

For “LmClpP1/2 heterooligomeric complex, wild type (LmClpP1^wt/2^wt)”, the K app from protease activity of LmClpXP1/2 at varying concentrations of LmClpP1/2 (LmClpP14) in [7] was 85 nM. For the molecule “Listeria monocytogenes ClpP2 homotetradecamer (LmClpP2), unmodified (enzyme)”, the stoichiometry N in assay [8] is 14. With `COC(=O)c1ccc(OC(=O)CCc2cc(OC)c(OC)c(OC)c2)cc1` [AV170], the “% activity” value in assay [9] is “AV170 turned out to be the most effective inhibitor against each complex”; in assay [10], “AV170 and both CMK inhibitors were the most effective against LmClpP2”. Take LmClpP2(S98A) homocomplex (enzyme): in [5], the K app from unfolding activity on GFP-LmSsrA (0.125 uM) with 0.4 uM LmClpX6 and varying concentrations of LmClpP14 (S98A homocomplex) is 2360 nM.
